Measurements taken from patent publication US20160362495A1 (E R SQUIBB AND SONS L L C, published 2016).
Positions count from the first letter of the chain named.

B1: 10A5 human monoclonal antibody (antibody, V domains shown)
VH: QVQLVQSGAEVKKPGASVKVSCKASGYTFTSYDVHWVRQAPGQRLEWMGWLHADTGITKFSQKFQGRVTITRDTSASTAYMELSSLRSEDTAVYYCARERIQLWFDYWGQGTLVTVSS
VL: DIQMTQSPSSLSASVGDRVTITCRASQGISSWLAWYQQKPEKAPKSLIYAASSLQSGVPSRFSGSGSGTDFTLTISSLQPEDFATYYCQQYNSYPYTFGQGTKLEIK
notes: Fully human IgG kappa antibody from a KM-mouse hybridoma; also called HuMAb 10A5
B2: 10H10 human monoclonal antibody (antibody, V domains shown)
VH: EVQLVESGGGLVQPGRSLRLSCAVSGFTFDDYVVHWVRQAPGKGLEWVSGISGNSGNIGYADSVKGRFTISRDNAKNSLYLQMNSLRAEDTALYYCAVPFDYWGQGTLVTVSS
VL: B1 VL
notes: Fully human IgG kappa antibody from a KM-mouse hybridoma
B3: 3G10 human monoclonal antibody (antibody, V domains shown)
VH: QVQLVQSGAEVKKPGASVKVSCKASGYTFTDYGFSWVRQAPGQGLEWMGWITAYNGNTNYAQKLQGRVTMTTDTSTSTVYMELRSLRSDDTAVYYCARDYFYGMDVWGQGTTVTVSS
VL: EIVLTQSPATLSLSPGERATLSCRASQSVSSYLVWYQQKPGQAPRLLIYDASNRATGIPARFSGSGSGTDFTLTISSLEPEDFAVYYCQQRSNWPRTFGQGTKVEIK
notes: Fully human IgG kappa antibody from a KM-mouse hybridoma; also called HuMAb 3G10
B4: 1B12 human monoclonal antibody (antibody, V domains shown)
VH: QVQLVQSGAEVKKPGSSVKVSCKTSGDTFSSYAISWVRQAPGQGLEWMGGIIPIFGRAHYAQKFQGRVTITADESTSTAYMELSSLRSEDTAVYFCARKFHFVSGSPFGMDVWGQGTTVTVSS
VL: not shown
notes: as for B2
B5: 12A4 human monoclonal antibody (antibody, V domains shown)
VH: B4 VH with S31T, R57K
VL: not shown
notes: Fully human IgG kappa antibody from a KM-mouse hybridoma; also called HuMAb 12A4
B6: 7H1 human monoclonal antibody (antibody, V domains shown)
VH: B4 VH with D27G, R57K, S77T, F95Y, F100Y, H101D, F102Y
VL: not shown
notes: as for B2

Columns and labels:
[1] = target: T1, human PD-L1 expressed at the cell surface (human, UniProt Q9NZQ7 19-290); assay: flow cytometry titration on IFN-gamma-treated ES-2 cells, anti-human kappa detection (sheet title), FL1 GMFI
T1 construct: whole, on cells; also called cell surface PD-L1; hPD-L1

[2] = target: T2, recombinant human PD-L1 fusion protein (human PD-L1 fused to an immunoglobulin Fc region) (human, UniProt Q9NZQ7 19-238); assay: flow cytometry blocking assay: antibody titrated against FITC-labeled PD-L1-Fc binding to CHO cells expressing human PD-1
T2 construct: extracellular domain; also called PD-L1-Fc fusion protein; PD-L1-Ig; not shown: immunoglobulin Fc region
Protocol: Anti-PD-L1 human monoclonal antibodies were tested for the ability to block binding of the ligand PD-L1 to PD-1 expressed on transfected CHO cells by using a cell cytometry assay.
PD-1 expressing CHO cells were suspended in FACS buffer (PBS with 4% fetal calf serum). […] Flow cytometric analyses were performed using a FACScalibur flow cytometer (Becton Dickinson, San Jose, Calif.).

[3] = target: T2, recombinant human PD-L1 fusion protein …; assay: ELISA on hPD-L1/Fc, HRP goat anti-human IgG (kappa chain-specific) detection
Protocol: Standard ELISA procedures were performed. The anti-PD-L1 human monoclonal antibodies were added at different concentrations. Goat-anti-human IgG (kappa chain-specific) polyclonal antibody conjugated with horseradish peroxidase (HRP) was used as secondary antibody.

[4] = target: T1, human PD-L1 expressed at the cell …; assay: flow cytometry titration on CHO cells transfected with human PD-L1, FITC-labeled anti-human IgG detection
Source text: Chinese hamster ovary (CHO) cell lines that express recombinant human PD-L1 at the cell surface were developed and used to determine the specificity of PD-L1 human monoclonal antibodies by flow cytometry. CHO cells were transfected with expression plasmids containing full length cDNA encoding transmembrane forms of PD-L1. […] The cells were washed and binding was detected with a FITC-labeled anti-human IgG Ab. Flow cytometric analyses were preformed using a FACScan flow cytometry (Becton Dickinson, San Jose, Calif.). The binding was compared to the parent CHO cell line. […] Binding was also tested using varying concentrations of anti-PD-L1 antibody.

[5] = target: T2, recombinant human PD-L1 fusion protein …; assay: SPR (Biacore), PD-L1 fusion protein amine-coupled to CM5 chip, antibody flowed at 133 nM, 1:1 Langmuir fit
Protocol: Anti-PD-L1 antibodies were characterized for affinities and binding kinetics by Biacore analysis (Biacore AB, Uppsala, Sweden). […] The antigen-antibody association kinetics was followed for 1 minute and the dissociation kinetics was followed for 1 minute. The association and dissociation curves were fit to a 1:1 Langmuir binding model using BIAevaluation software (Biacore AB). To minimize the effects of avidity in the estimation of the binding constants, only the initial segment of data corresponding to association and dissociation phases were used for fitting.

[6] = target: T2, recombinant human PD-L1 fusion protein …; assay: Biacore equilibrium binding, 37 C
[7] = target: T1, human PD-L1 expressed at the cell …; assay: flow cytometry blocking assay: antibody titrated on IFN-gamma-treated ES-2 cells, then PD-1-hFc at 2 ug/mL, detected with biotinylated 26D5 and streptavidin-PE (FL2 GMFI)
Protocol: The blocking was compared to isotype control antibody.
ES-2 cells were induced overnight with 500 IU/mL of hIFN-γ to upregulate hPD-L1 cell surface expression. Induced cells were suspended in FACS buffer. […] Finally, bound 26D5 antibody was detected by addition of streptavidin-PE conjugate at 4° C. for 30 minutes, followed by two washes to remove unbound conjugate. Flow cytometric analysis was performed using a FACScalibur flow cytometer (Becton Dickinson, San lose, Calif.). The results are depicted in FIG. 46.

[8] = target: T2, recombinant human PD-L1 fusion protein …; assay: Biacore equilibrium binding, 25 C
[9] = target: T3, cynomolgus monkey PD-L1 expressed on the surface of activated T cells (cynomolgus monkey, UniProt G7PSE7 19-290); assay: flow cytometry titration on activated cynomolgus PBMC, FITC anti-human kappa detection, FL1 GMFI
T3 construct: also called cynomolgus monkey cell surface PD-L1; stimulated cynomolgus PBMC
Protocol: (§1) Anti-PD-L1 antibodies were tested by flow cytometry for binding to activated human or cynomolgus monkey T cells expressing PD-L1 on their surface.
(§2) Human or monkey T cells were activated by anti-CD3 antibody to induce PD-L1 expression prior to binding with a human anti-PD-L1 monoclonal antibody. […] An isotype control antibody was used as a negative control. The cells were washed and binding was detected with a FITC-labeled antihuman Ig-kappa light chain Ab. Flow cytometric analyses were performed using a FACScalibur flow cytometer (Becton Dickinson, San Jose, Calif.).

[10] = target: T1, human PD-L1 expressed at the cell …; assay: flow cytometry titration on stimulated human CD4+ T cells, FITC anti-human kappa detection, FL1 GMFI
Protocol: as §1, §2

T2 sequence (Q9NZQ7 19-238): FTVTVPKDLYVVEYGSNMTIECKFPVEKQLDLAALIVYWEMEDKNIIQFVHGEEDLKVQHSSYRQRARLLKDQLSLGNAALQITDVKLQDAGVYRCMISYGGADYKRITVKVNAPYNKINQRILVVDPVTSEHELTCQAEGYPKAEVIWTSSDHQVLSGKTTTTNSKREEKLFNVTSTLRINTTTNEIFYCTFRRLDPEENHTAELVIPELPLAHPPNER
T3 sequence (G7PSE7 entry or part of it limits assumed): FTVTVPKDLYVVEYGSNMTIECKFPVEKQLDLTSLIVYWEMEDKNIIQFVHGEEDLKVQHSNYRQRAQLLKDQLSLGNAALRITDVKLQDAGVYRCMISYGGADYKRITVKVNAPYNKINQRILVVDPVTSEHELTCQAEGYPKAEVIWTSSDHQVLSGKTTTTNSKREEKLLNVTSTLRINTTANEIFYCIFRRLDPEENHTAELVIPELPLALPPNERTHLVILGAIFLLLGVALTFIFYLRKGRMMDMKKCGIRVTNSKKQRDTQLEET
T1 sequence (Q9NZQ7 19-290): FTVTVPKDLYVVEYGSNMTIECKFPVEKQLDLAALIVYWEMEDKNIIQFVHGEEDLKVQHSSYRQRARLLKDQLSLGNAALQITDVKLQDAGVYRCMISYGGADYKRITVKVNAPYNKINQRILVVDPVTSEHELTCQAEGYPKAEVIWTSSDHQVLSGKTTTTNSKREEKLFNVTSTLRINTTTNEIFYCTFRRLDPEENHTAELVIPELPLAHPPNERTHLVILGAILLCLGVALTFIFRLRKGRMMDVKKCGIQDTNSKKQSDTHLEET

Row | Binder | EC50 [1] | IC50 (read off the curve) [2] | EC50 (read off the curve) [3] | EC50 (read off the curve) [4] | Kd [5] | koff [5] | kon [5] | Kd [6] | IC50 [7] | Kd [8] | EC50 [9] | EC50 [10]
1 | B1 | 0.38 nM | ~3 µg/mL | ~0.08 µg/mL | ~0.3 µg/mL | 1.45 nM | 0.000372 s⁻¹ | 258000 M⁻¹ s⁻¹ | 2.41 nM | 0.29 nM | 0.57 nM | – | –
2 | B2 | – | – | – | – | – | – | – | 5.93 nM | – | 5.48 nM | – | –
3 | B3 | 0.42 nM | – | ~0.1 µg/mL | ~0.3 µg/mL | 3.39 nM | – | – | – | 0.47 nM | – | 0.38 nM | 0.23 nM
4 | B4 | 0.23 nM | – | – | – | – | – | – | 1.38 nM | 0.21 nM | – | 0.15 nM | 0.06 nM
5 | B5 | – | – | – | – | – | – | – | – | – | – | 0.1 nM | –
6 | B6 | – | – | – | – | – | – | – | 2.15 nM | – | – | – | –
